Assay results: patent CN112430265A (INST FOR VIRAL DISEASE CONTROL AND PREVENTION CHINESE …, dated 2021)

Target: 新型冠状病毒S1蛋白 (纯化) (SARS-CoV-2, UniProt P0DTC2 14-685)

B1: 人源抗新冠病毒中和性抗体nCoV-61 全抗体IgG (antibody, V domains shown)
VH: EVQLVESGGGLVQPGGSLRLSCEASEIIVNRNYMNWVRQAPGKGLEWVSIIYPGGSTFYADSVKGRFTISRDNSKNTMYLQMNSLRAEDTAVYYCARSYGDFYVDFWGQGTLVTVSS
VL: QSVLTQPPSVSAAPGQKVTISCSGSSSNIGNNYVSWYQQLPGTAPKLLIYDNNKRPSGIPDRFSGSKSGTSATLGITGLQTGDEADYYCGTWDSSLSAWVFGGGTKLTVLG
B1 gave a Kd of 3.33 pM.
